Results taken from US20230060388A1 (SHANGHAI HENLIUS BIOTECH, published 2023).

Assays:
[1] = molecular target: T1, human TIGIT expressed on cells (stably transfected Jurkat cells) (human, UniProt Q495A1 22-244); assay: flow cytometry on h-TIGIT transfected Jurkat cells (whole cell binding), Alexa Fluor 488 [upper panel]
T1 construct: Also used here for TIGIT on primary T cells in the MLR; also called h-TIGIT; T cell immunoreceptor with Ig and ITIM domains
T1 sequence: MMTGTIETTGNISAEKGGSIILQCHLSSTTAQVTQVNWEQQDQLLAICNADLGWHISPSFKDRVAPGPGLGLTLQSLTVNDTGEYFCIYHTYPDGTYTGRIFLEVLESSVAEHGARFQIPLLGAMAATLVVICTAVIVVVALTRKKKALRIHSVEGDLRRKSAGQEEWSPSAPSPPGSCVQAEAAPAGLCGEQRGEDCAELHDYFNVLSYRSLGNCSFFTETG

[2] = molecular target: T2, recombinant human TIGIT extracellular domain (ECD) (human, UniProt Q495A1 22-138); assay: ELISA on recombinant human TIGIT ECD
T2 construct: also called h-TIGIT ECD; recombinant human TIGIT ECD
T2 sequence: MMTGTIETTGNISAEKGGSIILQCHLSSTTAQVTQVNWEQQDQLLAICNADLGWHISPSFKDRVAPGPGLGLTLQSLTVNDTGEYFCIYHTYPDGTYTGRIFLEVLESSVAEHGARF
Experimental: (§1) FIGS. 8A-8C depict cross-binding activity of 2A3-Fc to human-, cyno- and mouse-TIGIT determined by ELISA assays. […] Reference Ab 2 is an anti-h-TIGIT reference antibody. Both 2A3-Fc and Reference Ab 2 bind to h-TIGIT with similar affinity. […] Both 2A3-Fc and Reference Ab 2 bind to cyno-TIGIT with similar affinity. […] Y axis represents OD450, X axis represents antibody concentrations in μg/ml.
(§2) Cross-species binding activity of 2A3-Fc to human, cynomolgus and mouse TIGIT was determined by ELISA assays, results of which are shown in FIGS. 8A-8C. 2A3-Fc bound to human, cynomolgus monkey but not mouse TIGIT.

[3] = molecular target: T3, recombinant cynomolgus TIGIT (cynomolgus monkey); assay: ELISA on recombinant cyno-TIGIT
T3 construct: also called cyno-TIGIT; cyno-TIGIT ECD
Experimental: as §1, §2

[4] = molecular target: T1, human TIGIT expressed on cells (stably …); assay: cell-based or functional assay
recombinant mouse TIGIT = molecular target: T4, recombinant mouse TIGIT (mouse, UniProt P86176 29-148, limits assumed); assay: ELISA, recombinant mouse-TIGIT
T4 sequence (looked up): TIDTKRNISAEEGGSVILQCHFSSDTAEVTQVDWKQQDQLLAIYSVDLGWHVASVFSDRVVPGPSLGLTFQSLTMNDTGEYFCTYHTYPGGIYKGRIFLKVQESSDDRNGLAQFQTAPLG

EC50 (read off the curve) [1]: ~500 pM | EC50 (read off the curve) [2]: ~0.1 µg/mL | EC50 (read off the curve) [3]: ~0.1 µg/mL | EC50 (read off the curve) of the NFAT luciferase reporter activity, TIGIT blockade assay [lower panel] [4]: ~1000 pM | binding result (recombinant mouse TIGIT): no binding
B1: 2A3-Fc (bivalent 2A3 antibody) (Fc fusion)
chain: QVQLVESGGGVVQPGRSLRLSCAASGGSFSSYPMGWFRQAPGKERESVAAISSDMRFTYYADSVKGRFTISRDNSKNTLYLQMNSLRAEDTAVYYCAARDSGVGYYSRAQWYDYWGQGTLVTVSS
notes: also called parental 2A3-Fc; 2A3 clone; not shown: human IgG1 CH2 and CH3 domains
